# B1: 20-bp DosR regulon consensus DNA (EM1/EM2) (dsDNA)
# DNA 1: TTGGGGACTAAAGTCCCTAA
# DNA 2: TTAGGGACTTTAGTCCCCAA
# Target: DosRK182R (Mycobacterium tuberculosis, UniProt P9WMF9 1-217, K182R)
# Test: EMSA; 4, 8, 16 uM protein; 20 mM MgCl2; […]; ITC: 20 mM Tris pH 8.0, 200 mM NaCl, 25 C, […]
# Details: protein: recombinant; tags: His6 (pET28a); chain copies: 2; label: none (ethidium bromide stain); blunt
binder,measurement,value
B1,binding result,binds
